B1: ESRRG (parent)
chain: YSCPATNECEITKRRRKSCQACRF
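Further: lentivirally expressed fusions sorted by FACS into six bins by GFP to DsRed ratio, PSI derived from sequencing read proportions per bin multiplied by bin number.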

This data set covers variants of B1. Put plainly: protein stability index of a GFP-peptide fusion (GPS, HEK-293T) (PSI 1-6); higher = more stable. Particulars: c terminus: a fixed tail appended.
On to YSCPATNECEITKRRRKSCQRCRF [A21R], for which the protein stability index was determined as 3.49. Turning to YSCPATNECEITKRRRKSCQTCRF [A21T], the protein stability index was 3.47.

Consider YSCPATNECEITKRRRKSCQNCRF [A21N], for which the protein stability index is 3.41. For the variant YSCPATNECEITKRRRKSCQYCRF [A21Y], the protein stability index was determined as 3.16. On to YSCPATNECEITKRRRKSCQQCRF [A21Q], for which the protein stability index stood at 3.29.

Consider YSCPATNECEITKRRRKSCQHCRF [A21H], for which the protein stability index is 4.06. Take YSCPATNECEITKRRRKSCQLCRF [A21L]: the protein stability index worked out at 2.31. Regarding YSCPATNECEITKRRRKSCQGCRF [A21G], the protein stability index was 3.44. As for YSCPATNECEITKRRRKSCQKCRF [A21K], the protein stability index turned out to be 3.63. Consider YSCPATNECEITKRRRKSCQDCRF [A21D], for which the protein stability index is 3.49.

For the variant YSCPATNECEITKRRRKSCQFCRF [A21F], the protein stability index came to 2.94.

For the variant YSCPATNECEITKRRRKSCQVCRF [A21V], the protein stability index was found to be 3.2. For the variant YSCPATNECEITKRRRKSCQECRF [A21E], the protein stability index amounted to 3.43. For YSCPATNECEITKRRRKSCQMCRF [A21M], the protein stability index turned out to be 2.46. Regarding YSCPATNECEITKRRRKSCQCCRF [A21C], the protein stability index amounted to 3.66. As to YSCPATNECEITKRRRKSCQWCRF [A21W], the protein stability index is 2.55. As for YSCPATNECEITKRRRKSCQSCRF [A21S], the protein stability index was 3.23. Regarding YSCPATNECEITKRRRKSCQPCRF [A21P], the protein stability index worked out at 3.29. Regarding YSCPATNECEITKRRRKSCQICRF [A21I], the protein stability index was found to be 2.54. Under YSCPATNECEITKRRRKTCQACRF [S18T] stands 3.59; under YSCPATNECEITKRRRKRCQACRF [S18R], 3.8; under YSCPATNECEITKRRRKFCQACRF [S18F], 2.9. As to YSCPATNECEITKRRRKHCQACRF [S18H], the protein stability index is 3.48. Under YSCPATNECEITKRRRKWCQACRF [S18W] stands 2.93; under YSCPATNECEITKRRRKMCQACRF [S18M], 3.38. Under YSCPATNECEITKRRRKCCQACRF [S18C] stands 3.31; under YSCPATNECEITKRRRKQCQACRF [S18Q], 3.6. Consider YSCPATNECEITKRRRKPCQACRF [S18P], for which the protein stability index worked out at 3.66. Turning to YSCPATNECEITKRRRKKCQACRF [S18K], the protein stability index was found to be 3.51. As to YSCPATNECEITKRRRKECQACRF [S18E], the protein stability index was 3.43. YSCPATNECEITKRRRKGCQACRF [S18G]: the protein stability index came to 2.74. On to YSCPATNECEITKRRRKNCQACRF [S18N], for which the protein stability index was 3.44.

Consider YSCPATNECEITKRRRKLCQACRF [S18L], for which the protein stability index turned out to be 3.19. As to YSCPATNECEITKRRRKICQACRF [S18I], the protein stability index amounted to 3.16. Under YSCPATNECEITKRRRKVCQACRF [S18V] stands 3.08; under YSCPATNECEITKRRRKDCQACRF [S18D], 3.6; under YSCPATNECEITKRRRKACQACRF [S18A], 3.58. Consider YSCPATNECEITKRRRKYCQACRF [S18Y], for which the protein stability index amounted to 2.87. Under YSCPATNECEITKRRRKSYQACRF [C19Y] stands 3.44; under YSCPATNECEITKRRRKSWQACRF [C19W], 3.15; under YSCPATNECEITKRRRKSAQACRF [C19A], 3.83. As for YSCPATNECEITKRRRKSFQACRF [C19F], the protein stability index worked out at 3.17. YSCPATNECEITKRRRKSGQACRF [C19G]: the protein stability index was 3.55.

With YSCPATNECEITKRRRKSMQACRF [C19M], the protein stability index was determined as 3.42. Under YSCPATNECEITKRRRKSVQACRF [C19V] stands 3.27; under YSCPATNECEITKRRRKSQQACRF [C19Q], 3.78. Under YSCPATNECEITKRRRKSIQACRF [C19I] stands 2.94. Under YSCPATNECEITKRRRKSKQACRF [C19K] stands 3.94; under YSCPATNECEITKRRRKSRQACRF [C19R], 3.72. As to YSCPATNECEITKRRRKSSQACRF [C19S], the protein stability index worked out at 3.54. Under YSCPATNECEITKRRRKSTQACRF [C19T] stands 3.85; under YSCPATNECEITKRRRKSPQACRF [C19P], 3.35; under YSCPATNECEITKRRRKSEQACRF [C19E], 3.84. Turning to YSCPATNECEITKRRRKSHQACRF [C19H], the protein stability index was 3.69. Take YSCPATNECEITKRRRKSDQACRF [C19D]: the protein stability index stood at 4.09. Take YSCPATNECEITKRRRKSNQACRF [C19N]: the protein stability index was 3.82. In the case of YSCPATNECEITKRRRKSLQACRF [C19L], the protein stability index turned out to be 3.14. Under YSCPATNECEITKRRRKSCQAGRF [C22G] stands 3.38. For YSCPATNECEITKRRRKSCQAHRF [C22H], the protein stability index came to 3.5. In the case of YSCPATNECEITKRRRKSCQARRF [C22R], the protein stability index stood at 3.87. With YSCPATNECEITKRRRKSCQAYRF [C22Y], the protein stability index was 3.01. YSCPATNECEITKRRRKSCQAIRF [C22I]: the protein stability index stood at 3.42.

For the variant YSCPATNECEITKRRRKSCQANRF [C22N], the protein stability index stood at 4.09. With YSCPATNECEITKRRRKSCQAMRF [C22M], the protein stability index was determined as 2.9. As for YSCPATNECEITKRRRKSCQALRF [C22L], the protein stability index is 3.71. With YSCPATNECEITKRRRKSCQAVRF [C22V], the protein stability index came out at 3.66. YSCPATNECEITKRRRKSCQAPRF [C22P]: the protein stability index worked out at 3.86. In the case of YSCPATNECEITKRRRKSCQASRF [C22S], the protein stability index is 3.9.

For YSCPATNECEITKRRRKSCQAARF [C22A], the protein stability index was 3.47.

For the variant YSCPATNECEITKRRRKSCQAERF [C22E], the protein stability index stood at 3.49. For YSCPATNECEITKRRRKSCQAKRF [C22K], the protein stability index amounted to 3.97.

Consider YSCPATNECEITKRRRKSCQAFRF [C22F], for which the protein stability index is 2.81. Regarding YSCPATNECEITKRRRKSCQAQRF [C22Q], the protein stability index is 3.67.

Take YSCPATNECEITKRRRKSCQATRF [C22T]: the protein stability index came out at 3.58. Turning to YSCPATNECEITKRRRKSCQADRF [C22D], the protein stability index worked out at 4.07. As to YSCPATNECEITKRRRKSCQAWRF [C22W], the protein stability index amounted to 2.94.

As for YSCPATNECEITKRRIKSCQACRF [R16I], the protein stability index was 3.31. As for YSCPATNECEITKRRGKSCQACRF [R16G], the protein stability index turned out to be 3.66. As for YSCPATNECEITKRRHKSCQACRF [R16H], the protein stability index was found to be 3.8. YSCPATNECEITKRRMKSCQACRF [R16M]: the protein stability index turned out to be 3.07. Turning to YSCPATNECEITKRRLKSCQACRF [R16L], the protein stability index was 2.92. For the variant YSCPATNECEITKRRDKSCQACRF [R16D], the protein stability index was 3.75. Regarding YSCPATNECEITKRRVKSCQACRF [R16V], the protein stability index was 3.32. Under YSCPATNECEITKRRKKSCQACRF [R16K] stands 3.62; under YSCPATNECEITKRRYKSCQACRF [R16Y], 3; under YSCPATNECEITKRRWKSCQACRF [R16W], 3.06. YSCPATNECEITKRRFKSCQACRF [R16F]: the protein stability index is 2.92. In the case of YSCPATNECEITKRRQKSCQACRF [R16Q], the protein stability index stood at 3.66. For YSCPATNECEITKRRSKSCQACRF [R16S], the protein stability index worked out at 3.8. Turning to YSCPATNECEITKRRNKSCQACRF [R16N], the protein stability index was found to be 3.69. Consider YSCPATNECEITKRRCKSCQACRF [R16C], for which the protein stability index stood at 3.72. Regarding YSCPATNECEITKRRAKSCQACRF [R16A], the protein stability index was determined as 3.48. On to YSCPATNECEITKRREKSCQACRF [R16E], for which the protein stability index was 3.63. Regarding YSCPATNECEITKRRPKSCQACRF [R16P], the protein stability index is 3.24.

The values above are taken from the supplement of paper PMC10567573.
